Tests used:
[1] = target: T1, mIL-13R1-Fc (catalogue number 491-IR-200, R+D Systems) (mouse, UniProt O09030 26-340); assay: ELISA, receptor-Fc captured on anti-human IgG, detection with biotinylated anti-mIL-13
T1 construct: Bought; also called mIL-13Rα1; mouse IL-13 receptor; not shown: Fc part; captured on plates with anti-human IgG
T1 sequence (looked up): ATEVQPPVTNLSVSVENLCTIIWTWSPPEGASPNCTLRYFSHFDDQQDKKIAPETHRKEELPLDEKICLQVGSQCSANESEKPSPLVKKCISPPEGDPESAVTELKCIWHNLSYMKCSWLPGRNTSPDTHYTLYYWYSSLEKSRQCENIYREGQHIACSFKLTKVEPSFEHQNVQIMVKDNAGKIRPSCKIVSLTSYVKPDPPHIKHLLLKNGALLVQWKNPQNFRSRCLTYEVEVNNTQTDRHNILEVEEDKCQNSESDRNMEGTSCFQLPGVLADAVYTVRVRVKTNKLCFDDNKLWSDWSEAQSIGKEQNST
Description: (§1) ELISAs were set up to determine whether cIL-13 could bind to either of the known mouse IL-13 receptors (mIL-13R1 or mIL-13R2). 96-well Maxisorp plates were coated with anti-human IgG (catalogue number I-3382, Sigma Aldrich) in carbonate-bicarbonate buffer overnight at 4° C. Plates were then blocked with 3% BSA/TBST for 1 hour at RT, washed 3 times in TBST, and incubated with mIL-13R1-Fc or mIL-13R2-Fc (catalogue numbers 491-IR-200 and 539-IR-100 respectively, R+D Systems) for 1 hour at RT. After washing, plates were incubated with dilutions of mIL-13 or cIL-13 or GST-cIL-13 for 1 hour at RT, washed again and incubated with biotinylated anti-mIL-13 (catalogue number BAF413, R+D Systems). Following further washing and incubation with streptavidin conjugated horse-radish peroxidase, the plates were developed with 0-phenylenediamine dihydrochloride peroxidase substrate for 30 minutes.

[2] = target: T2, mIL-13R2-Fc (catalogue number 539-IR-100, R+D Systems) (mouse, UniProt O88786 22-334); assay: as above
T2 construct: Bought; also called mIL-13Rα2; mouse IL-13 receptor; not shown: Fc part; captured on plates with anti-human IgG
T2 sequence (looked up): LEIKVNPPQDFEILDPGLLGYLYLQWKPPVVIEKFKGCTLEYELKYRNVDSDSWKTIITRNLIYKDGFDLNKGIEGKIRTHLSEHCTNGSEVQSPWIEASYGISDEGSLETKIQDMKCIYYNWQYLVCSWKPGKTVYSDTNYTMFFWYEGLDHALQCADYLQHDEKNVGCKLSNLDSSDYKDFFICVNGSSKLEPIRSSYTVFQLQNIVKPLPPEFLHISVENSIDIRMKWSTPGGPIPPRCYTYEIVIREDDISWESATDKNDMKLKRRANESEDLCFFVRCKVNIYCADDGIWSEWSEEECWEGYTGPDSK
Description: as §1

[3] = target: T3, human type-2 IL-4 receptor expressed by the human lung fibroblast cell line A549 (human, UniProt P24394 26-825; P78552 22-427); assay: cell-based or functional assay
T3 sequence (looked up) 1: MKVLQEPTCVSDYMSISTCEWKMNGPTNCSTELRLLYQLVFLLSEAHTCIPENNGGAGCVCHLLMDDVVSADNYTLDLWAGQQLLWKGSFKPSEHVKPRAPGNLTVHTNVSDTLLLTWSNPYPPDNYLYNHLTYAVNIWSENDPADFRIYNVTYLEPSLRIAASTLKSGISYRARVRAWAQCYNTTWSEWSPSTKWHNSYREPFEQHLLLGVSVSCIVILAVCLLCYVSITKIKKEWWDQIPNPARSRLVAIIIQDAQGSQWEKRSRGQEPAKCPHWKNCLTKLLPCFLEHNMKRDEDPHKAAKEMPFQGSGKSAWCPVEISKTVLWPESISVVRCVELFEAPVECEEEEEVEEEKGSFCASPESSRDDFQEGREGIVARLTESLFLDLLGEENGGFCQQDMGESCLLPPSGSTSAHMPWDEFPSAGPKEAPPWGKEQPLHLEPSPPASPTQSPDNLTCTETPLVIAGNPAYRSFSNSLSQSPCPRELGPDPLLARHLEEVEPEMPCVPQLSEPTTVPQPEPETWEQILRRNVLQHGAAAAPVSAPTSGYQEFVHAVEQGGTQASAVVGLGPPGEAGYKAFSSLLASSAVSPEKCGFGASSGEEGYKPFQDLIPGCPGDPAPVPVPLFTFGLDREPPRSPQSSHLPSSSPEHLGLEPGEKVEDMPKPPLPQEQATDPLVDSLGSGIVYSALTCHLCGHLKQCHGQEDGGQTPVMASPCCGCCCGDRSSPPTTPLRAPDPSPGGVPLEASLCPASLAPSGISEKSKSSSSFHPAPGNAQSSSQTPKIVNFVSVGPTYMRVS
T3 sequence (looked up) 2: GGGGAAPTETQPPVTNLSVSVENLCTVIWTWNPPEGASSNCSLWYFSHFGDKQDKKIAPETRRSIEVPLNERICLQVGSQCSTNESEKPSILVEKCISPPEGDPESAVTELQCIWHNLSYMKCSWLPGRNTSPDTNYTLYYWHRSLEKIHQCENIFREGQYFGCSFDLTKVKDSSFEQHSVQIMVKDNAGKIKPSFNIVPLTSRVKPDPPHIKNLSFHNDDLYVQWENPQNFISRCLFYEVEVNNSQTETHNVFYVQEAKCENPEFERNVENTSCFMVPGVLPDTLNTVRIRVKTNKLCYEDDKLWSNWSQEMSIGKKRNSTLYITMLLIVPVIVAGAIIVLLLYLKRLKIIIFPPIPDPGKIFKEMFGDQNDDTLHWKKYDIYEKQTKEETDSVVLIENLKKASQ

B1: chimaeric IL-13 (free cIL-13 generated from GST-cIL-13 by thrombin cleavage) (ligand)
chain: GPVPRSVSLPLTLRELIEELVNITQDQTPLCNGSMVWSVDLAAGGYCAALESLTNISNCNAIEKTQRMLGGLCNRKAPTTVSSLPDTKIEVAQFVKDLLSYTKQLFRHGPF
notes: also called mouse chimaeric IL-13 vaccine construct
- binding result [1]: binds
- binding result [2]: binds
- fold decrease in bioactivity against mIL-13 (STAT6 phosphorylation in A549 cells) [3]: ~5 fold

B2: GST-cIL-13 (genetic fusion protein of glutathione-S-transferase and chimaeric IL-13) (other)
chain: GPVPRSVSLPLTLRELIEELVNITQDQTPLCNGSMVWSVDLAAGGYCAALESLTNISNCNAIEKTQRMLGGLCNRKAPTTVSSLPDTKIEVAQFVKDLLSYTKQLFRHGPF
notes: Expressed in E. coli BLR from pGEX4T3-cIL-13; also called GST-cIL-3; not shown: glutathione-S-transferase as encoded by vector pGEX4T3 (Amersham Pharmacia); short spacer which contains the recognition site for thrombin
- binding result [1]: binds
- binding result [2]: binds

Source: patent publication US20030194391A1 (published 2003)
